According to publication PMC9325241:

Assays:
[1] = biological target: recombinant EGFR (human EGFR protein) (human) (UniProt P00533); assay: SPR; conditions: bispecific antibody
[2] = biological target: recombinant PD-L1 (human PD-L1 protein) (human) (UniProt Q9NZQ7); assay: SPR; conditions: bispecific antibody
Chain of UniProt Q9NZQ7 (Q9NZQ7 19-238): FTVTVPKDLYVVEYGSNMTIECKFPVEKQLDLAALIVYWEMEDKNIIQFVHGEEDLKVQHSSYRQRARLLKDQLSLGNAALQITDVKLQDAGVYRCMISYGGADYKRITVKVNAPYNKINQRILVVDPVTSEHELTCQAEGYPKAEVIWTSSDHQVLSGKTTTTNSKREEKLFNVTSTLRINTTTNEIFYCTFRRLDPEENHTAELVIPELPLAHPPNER

Substance	Kd [1] [nM]	koff [1] [s⁻¹]	Kd [2] [nM]	koff [2] [s⁻¹]
anti-EGFR/PD-L1 BsAb, dual variable domain immunoglobulin (DVD-Ig) symmetric tetravalent format (from UniProt P01857)	0.913	0.0007	0.000374	7.56e-07
anti-EGFR/PD-L1 BsAb, knob-in-hole (KIH) asymmetric bivalent format (from UniProt P01857)	56.3	0.0295	0.0106	2.13e-05
